Experimental data reported in US20210403580A1 (AJOU UNIVERSITY INDUSTRY ACADEMIC COOPERATION FOUNDATION, published 2021).

Molecular target: T1, hIL-4Rα (Sino Biological) (human, UniProt P24394 26-232)
T1 construct: Bought protein immobilised on the CM5 chip for SPR
Test: SPR (Biacore 2000), hIL-4Rα (Sino Biological) immobilised to about 500 RU on CM5, IgG as analyte
Description: Specifically, hIL-4Rα (Sino Biological) was diluted to a concentration of […] in a 10 mM NaAc buffer (pH 4.0) and immobilized to about 500 response units (RU) on a CM5 sensor chip (GE Healthcare). […] After binding and dissociation analysis, regeneration of the CM5 chip was carried out by flushing the CM5 chip with a buffer solution (10 mM Glycine, pH 2.0) at a flow rate of 30 μl/min for 90 seconds. The sensorgram, obtained by binding for 90 seconds and dissociation for 900 seconds, was normalized and the value of a blank cell was subtracted therefrom to calculate the affinity.
In this manner, affinity may vary depending on the level of antigen immobilization.

- Kd: 1.21 nM
- koff: 0.000177 s⁻¹
- kon: 147000 M⁻¹ s⁻¹
B1: 4R25 (antibody, V domains shown)
VH: EVQLLESGGGLVQPGGSLRLSCAASGFTFSNYAMSWVRQAPGKGLEWVSWISPNSGNIYYADSVKGRFTISRDNSKNTLYLQMNSLRAEDTAVYYCARRPLSAAWSHSSYYNAMDVWGQGTLVTVSS
VL: QSVLTQPPSAPGTPGQRVTISCTGSSSNIGSNSVNWYQQLPGTAPKLLIYDDSHRPSGVPDRFSGSKSGTSASLAISGLRSEDEADYYCDAWDSSLSAYVFGGGTKLTVL
